Experimental data: patent US8551717B2, “Method for determining sumoylation” (Medizinische Hochschule Hannover, priority 2008, dated 2013)

Legend:
[1] = molecular target: T1, JUN-U (Homo sapiens, UniProt P05412+P63279); test: Trans-SUMOylation by JUN-U; type: cell-based; conditions: protein 2 construct coexpressed with JUN-U and EGFP-SUMO1 in HEK293, western blot
T1 construct: expressed in transfected cells; host or cells: HEK293

[2] = molecular target: T2, U-MK2 (Homo sapiens, UniProt P49137+P63279); test: Trans-SUMOylation by U-MK2; type: cell-based; conditions: protein 2 construct coexpressed with U-MK2 and EGFP-SUMO1 in HEK293
T2 construct: expressed in transfected cells; host or cells: HEK293
T2 sequence (P63279+P49137 fused): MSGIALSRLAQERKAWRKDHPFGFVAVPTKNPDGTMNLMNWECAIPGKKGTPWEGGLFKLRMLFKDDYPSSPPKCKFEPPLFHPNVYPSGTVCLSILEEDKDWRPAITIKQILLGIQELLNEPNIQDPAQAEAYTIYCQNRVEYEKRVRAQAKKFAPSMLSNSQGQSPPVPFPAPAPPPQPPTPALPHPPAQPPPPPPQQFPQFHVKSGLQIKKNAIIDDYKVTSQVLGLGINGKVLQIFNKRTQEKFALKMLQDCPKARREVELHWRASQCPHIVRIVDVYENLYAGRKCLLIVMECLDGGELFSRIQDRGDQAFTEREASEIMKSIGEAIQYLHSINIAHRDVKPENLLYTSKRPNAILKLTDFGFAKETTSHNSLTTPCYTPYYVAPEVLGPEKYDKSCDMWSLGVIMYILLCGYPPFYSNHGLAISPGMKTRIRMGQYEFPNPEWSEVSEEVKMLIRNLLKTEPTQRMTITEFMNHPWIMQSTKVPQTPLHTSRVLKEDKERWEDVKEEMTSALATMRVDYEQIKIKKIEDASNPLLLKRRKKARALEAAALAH

[3] = molecular target: T3, U-p38α (Homo sapiens, UniProt P63279+Q16539); test: Trans-SUMOylation by U-p38α; type: cell-based; conditions: protein 2 construct coexpressed with U-p38α and EGFP-SUMO1 in HEK293
T3 construct: expressed in transfected cells; host or cells: HEK293
T3 sequence (P63279+Q16539 fused): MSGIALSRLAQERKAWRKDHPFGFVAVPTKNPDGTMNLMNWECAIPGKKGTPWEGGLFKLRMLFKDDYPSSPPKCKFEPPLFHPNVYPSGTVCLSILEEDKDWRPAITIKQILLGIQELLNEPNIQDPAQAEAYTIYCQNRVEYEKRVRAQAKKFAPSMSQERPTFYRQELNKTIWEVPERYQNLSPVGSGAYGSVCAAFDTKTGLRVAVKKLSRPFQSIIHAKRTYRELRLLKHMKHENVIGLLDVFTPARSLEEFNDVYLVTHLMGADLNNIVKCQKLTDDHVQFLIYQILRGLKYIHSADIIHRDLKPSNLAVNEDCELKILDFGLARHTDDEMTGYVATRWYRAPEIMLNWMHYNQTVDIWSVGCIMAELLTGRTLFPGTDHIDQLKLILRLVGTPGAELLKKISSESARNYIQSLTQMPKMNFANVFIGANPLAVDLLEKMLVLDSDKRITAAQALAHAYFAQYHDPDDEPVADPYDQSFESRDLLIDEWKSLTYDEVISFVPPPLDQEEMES

[4] = molecular target: T4, p53-U (Homo sapiens, UniProt P04637+P63279); test: Trans-SUMOylation by p53-U; type: cell-based; conditions: western blot
T4 construct: expressed in transfected cells; host or cells: HEK293

[5] = molecular target: T5, MK2-U (Homo sapiens, UniProt P49137+P63279); test: Trans-SUMOylation by MK2-U; type: cell-based; conditions: protein 2 construct coexpressed with MK2-U and EGFP-SUMO1 in HEK293
T5 construct: expressed in transfected cells; host or cells: HEK293
T5 sequence (P49137+P63279 fused): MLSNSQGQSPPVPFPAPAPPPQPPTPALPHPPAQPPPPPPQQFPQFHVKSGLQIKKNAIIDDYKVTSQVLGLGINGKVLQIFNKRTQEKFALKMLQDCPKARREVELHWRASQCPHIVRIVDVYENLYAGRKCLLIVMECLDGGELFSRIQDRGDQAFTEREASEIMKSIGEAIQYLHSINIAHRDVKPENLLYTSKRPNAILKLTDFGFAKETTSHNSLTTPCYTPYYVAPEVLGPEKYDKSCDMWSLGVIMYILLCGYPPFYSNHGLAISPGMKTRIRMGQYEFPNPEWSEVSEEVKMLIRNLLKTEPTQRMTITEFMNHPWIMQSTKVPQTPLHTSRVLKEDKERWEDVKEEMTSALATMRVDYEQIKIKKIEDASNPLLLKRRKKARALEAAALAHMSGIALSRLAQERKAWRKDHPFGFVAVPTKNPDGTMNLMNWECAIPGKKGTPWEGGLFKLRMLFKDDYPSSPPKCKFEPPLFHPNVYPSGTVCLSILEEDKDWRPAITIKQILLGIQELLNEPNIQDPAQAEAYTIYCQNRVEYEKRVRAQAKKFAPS

[6] = molecular target: T6, U-MK5 (Homo sapiens, UniProt P63279+Q8IW41); test: Trans-SUMOylation by U-MK5; type: cell-based; parameters: key: (++), strong TransSUMOylation; (+), TransSUMOylation; (+/−) weak TransSUMOylation; (−) no detectable TransSUMOylation; conditions: protein 2 construct coexpressed with U-MK5 and EGFP-SUMO1 in HEK293; western blot; Table 2
T6 construct: expressed in transfected cells; host or cells: HEK293
T6 sequence (P63279+Q8IW41 fused): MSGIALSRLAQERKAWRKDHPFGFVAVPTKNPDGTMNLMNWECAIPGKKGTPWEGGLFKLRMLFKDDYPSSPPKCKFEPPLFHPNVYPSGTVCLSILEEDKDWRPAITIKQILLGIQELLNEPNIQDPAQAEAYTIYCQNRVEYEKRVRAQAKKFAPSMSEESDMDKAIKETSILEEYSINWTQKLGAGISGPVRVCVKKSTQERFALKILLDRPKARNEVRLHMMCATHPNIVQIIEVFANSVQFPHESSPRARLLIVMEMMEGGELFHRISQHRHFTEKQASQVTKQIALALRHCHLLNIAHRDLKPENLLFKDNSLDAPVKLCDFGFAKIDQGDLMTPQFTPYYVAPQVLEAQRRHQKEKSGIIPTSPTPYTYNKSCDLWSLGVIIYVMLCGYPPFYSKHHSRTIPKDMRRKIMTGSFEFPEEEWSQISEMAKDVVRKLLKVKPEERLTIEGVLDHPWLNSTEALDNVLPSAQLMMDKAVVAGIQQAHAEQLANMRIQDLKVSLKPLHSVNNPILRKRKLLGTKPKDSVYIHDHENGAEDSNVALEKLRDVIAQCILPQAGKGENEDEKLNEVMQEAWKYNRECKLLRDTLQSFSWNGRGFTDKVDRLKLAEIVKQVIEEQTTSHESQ
From the text: (§1) To identify new SUMOylation substrates and to study the function of SUMOylation the Ubc9/substrate dimerisation-dependent SUMOylation system (USDDS) was developed which consists of fusions of the SUMOylation substrate and of the SUMO-conjugating enzyme Ubc9 to the chemically activatable heterodimerisation domains FKBP and FRB, respectively, as shown in FIG. 2. When the substrate protein fused to FKBP is coexpressed with Ubc9-FRB, treatment of HEK293 cells with the rapamycin-related dimerizer AP21967 induces SUMOylation of the substrate protein fused to FKBP at its specific SUMOylation site. […] Dependent on an EcoRl site in the coding sequence, seven C-terminal amino acids of the human STAT1a in the STAT1-FKBP/FRB fusion proteins are missing. For the SUMOylation analysis HEK293 (human embryonic kidney cells) cells have been used. HEK293 cells were cultured in Dulbecco's modified Eagle's medium with high glucose, complemented with 10% fetal calf serum, 2 mM L-glutamine, 100 U/ml penicillin and […] streptomycin. We performed transfection of HEK293 cells using the polyethylenimine transfection reagent. HEK293 cells of a fresh confluent 10 cm plate were transferred on a 12-well plate. After 12-24 h incubation about 70% cell confluence is reached. For each well 45 μl of serum/antibiotic free DMEM medium is mixed with 750 ng of the transfection-purity expression vector DNA (all together 47 μl) and vortexed. Then, 3 μl of vortexed polyethylenimin stock solution (1 mg/ml) is added and the mixture is vortexed. After incubation at room temperature for 10 min 450 μl fresh DMEM with antibiotics is added to the mixture and vortexed. The medium on the cells was then completely removed and immediately, the 500 μl transfection mix was added carefully to each well. The 12 well plate was rocked to ensure a proper distribution of the DNA/transfection reagent complex. After an incubation of the cells for 24 h at a 37° C. in a humidified CO2-incubator (5%) the cells were lysed in 150 μl Laemmli (2×) gel loading buffer (160 mM Tris-HCL, pH 6.8, 4% (w/v) sodium dodecyl sulphate (SDS), 20% (v/v) glycerol, 0.5% β-mercaptoethanol (v/v), 0.008% (w/v) bromophenol blue) and incubated for 10 min at 95° C. For western blot analysis the proteins were separated by SDS-PAGE, blotted on a PVDF membrane and developed with specific primary antibodies (α-Ubc9 (H81, Santa Cruz), α-pY701-STAT1 (Tyr701, Cell Signaling), α-STAT1 (Cell Signaling), α-p53 (1C12, Cell Signaling), α-SUMO1 (Cell Signaling), a horseradish peroxidase (HRP)-conjugated secondary antibody (different companies), the ECL+ (Amersham) or Immobilon™ Western (Millipore) and the LAS-3000 imaging system (Fuji).
As shown above, the SUMOylation of a protein of interest can be induced by the heterodimerisation with a binding protein fused to Ubc9. To find out if Trans-SUMOylation is useful for the characterisation of common protein interactions, protein binding pairs well known from the literature or found in two hybrid screens. […] Therefore the protein pairs were coexpressed with EGFP-SUMO1 in HEK293 cells and after 24h the transfectants were lysed and the protein extracts were analyzed in western blots.
Protein-protein interactions described in the cited references were tested for Trans-SUMOylation. Each specific protein-protein interaction was tested by coexpression of different combinations of protein 1 fused to Ubc9 (U) with protein 2 mostly fused two a tag (HA, FLAG, Myc, GST, ST). (++), strong TransSUMOylation; (+), TransSUMOylation; (+/−) weak TransSUMOylation; (−) no detectable TransSUMOylation; (MEKK1ca) the activated MAP3 kinase MEKK1, that can enhance protein SUMOylation, was coexpressed.
Protein-protein interaction of each pair of protein 1/protein 2 was tested by coexpression of different combinations of a protein 1 fused to Ubc9 (U) with protein 2 mostly fused two a Tag (HA, FLAG, GST, ST). […]

[7] = molecular target: T7, U-CSNK2B (Homo sapiens, UniProt P63279+P67870); test: Trans-SUMOylation by U-CSNK2B; type: cell-based; parameters: key: (++), strong TransSUMOylation; (+), TransSUMOylation; (+/−) weak TransSUMOylation; (−) no detectable TransSUMOylation; conditions: protein 2 construct coexpressed with U-CSNK2B and EGFP-SUMO1 in HEK293; western blot; Table 2
T7 construct: expressed in transfected cells; host or cells: HEK293
T7 sequence (P63279+P67870 fused): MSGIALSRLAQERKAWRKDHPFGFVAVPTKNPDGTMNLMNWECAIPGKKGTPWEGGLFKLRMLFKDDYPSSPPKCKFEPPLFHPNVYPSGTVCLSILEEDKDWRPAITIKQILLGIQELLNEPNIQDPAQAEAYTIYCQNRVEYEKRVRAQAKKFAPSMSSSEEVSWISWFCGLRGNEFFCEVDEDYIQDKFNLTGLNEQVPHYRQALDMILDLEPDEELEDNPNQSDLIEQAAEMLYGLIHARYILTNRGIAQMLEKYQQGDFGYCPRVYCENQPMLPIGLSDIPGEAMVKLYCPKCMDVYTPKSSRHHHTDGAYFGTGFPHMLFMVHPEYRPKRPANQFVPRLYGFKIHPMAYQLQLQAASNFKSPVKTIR
From the text: as §1, with “The 12 well plate was rocked to ensure a proper distribution of the DNA/transfection reagent complex. After an incubation of the cells for 24 h at a 37° C. in a humidified CO2-incubator (5%) the cells were lysed in 150 μl Laemmli (2×) gel loading buffer (160 mM Tris-HCL, pH 6.8, 4% (w/v) sodium dodecyl sulphate (SDS), 20% (v/v) glycerol, 0.5% β-mercaptoethanol (v/v), 0.008% (w/v) bromophenol blue) and incubated for 10 min at 95° C. For western blot analysis the proteins were separated by SDS-PAGE, blotted on a PVDF membrane and developed with specific primary antibodies (α-Ubc9 (H81, Santa Cruz), α-pY701-STAT1 (Tyr701, Cell Signaling), α-STAT1 (Cell Signaling), α-p53 (1C12, Cell Signaling), α-SUMO1 (Cell Signaling), a horseradish peroxidase (HRP)-conjugated secondary antibody (different companies), the ECL+ (Amersham) or Immobilon™ Western (Millipore) and the LAS-3000 imaging system (Fuji).” left out
As shown above, the SUMOylation of a protein of interest can be induced by the heterodimerisation with a binding protein fused to Ubc9. […] Therefore the protein pairs were coexpressed with EGFP-SUMO1 in HEK293 cells and after 24h the transfectants were lysed and the protein extracts were analyzed in western blots. […]

[8] = tested on: STAT1; test: Interplay of STAT1 Y701 phosphorylation and K703 SUMOylation by USDDS, western blot; type: cell-based, human; conditions: HEK293, USDDS with AP21967 1 μM and interferon-β, any stimulation scenario
[9] = molecular target: T8, STAT1-U (Homo sapiens, UniProt P42224+P63279); test: Trans-SUMOylation by STAT1-U; type: cell-based; conditions: protein 2 construct coexpressed with STAT1-U and EGFP-SUMO1 in HEK293; western blot; Table 1
T8 construct: expressed in transfected cells; host or cells: HEK293
T8 sequence (P42224+P63279 fused): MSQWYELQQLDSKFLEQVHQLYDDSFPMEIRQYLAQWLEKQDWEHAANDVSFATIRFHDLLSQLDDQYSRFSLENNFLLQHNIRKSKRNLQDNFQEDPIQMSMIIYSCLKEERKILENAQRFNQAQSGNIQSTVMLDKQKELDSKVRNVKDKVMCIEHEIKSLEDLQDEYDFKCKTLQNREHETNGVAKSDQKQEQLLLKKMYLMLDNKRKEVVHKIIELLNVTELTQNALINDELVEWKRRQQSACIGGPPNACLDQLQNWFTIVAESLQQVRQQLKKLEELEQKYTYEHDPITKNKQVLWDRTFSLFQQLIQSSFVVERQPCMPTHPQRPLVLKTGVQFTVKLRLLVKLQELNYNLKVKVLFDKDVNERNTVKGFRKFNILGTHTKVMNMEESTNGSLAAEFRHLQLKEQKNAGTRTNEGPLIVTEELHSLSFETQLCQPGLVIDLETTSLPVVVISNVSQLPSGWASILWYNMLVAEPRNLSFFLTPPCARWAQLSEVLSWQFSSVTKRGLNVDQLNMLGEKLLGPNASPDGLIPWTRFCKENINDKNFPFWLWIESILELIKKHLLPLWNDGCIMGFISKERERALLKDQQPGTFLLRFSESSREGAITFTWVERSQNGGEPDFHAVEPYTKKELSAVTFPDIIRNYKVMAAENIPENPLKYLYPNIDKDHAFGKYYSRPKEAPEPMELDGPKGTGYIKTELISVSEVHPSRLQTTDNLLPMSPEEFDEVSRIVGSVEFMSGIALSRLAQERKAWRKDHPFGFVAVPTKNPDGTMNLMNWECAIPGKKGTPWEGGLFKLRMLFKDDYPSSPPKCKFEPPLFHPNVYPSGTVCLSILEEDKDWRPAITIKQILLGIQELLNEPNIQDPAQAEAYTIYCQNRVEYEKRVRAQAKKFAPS

[10] = molecular target: T9, CSNK2B-U (Homo sapiens, UniProt P63279+P67870); test: Trans-SUMOylation by CSNK2B-U; type: cell-based; conditions: protein 2 construct coexpressed with CSNK2B-U and EGFP-SUMO1 in HEK293; western blot; Table 1
T9 construct: expressed in transfected cells; host or cells: HEK293
T9 sequence (P67870+P63279 fused): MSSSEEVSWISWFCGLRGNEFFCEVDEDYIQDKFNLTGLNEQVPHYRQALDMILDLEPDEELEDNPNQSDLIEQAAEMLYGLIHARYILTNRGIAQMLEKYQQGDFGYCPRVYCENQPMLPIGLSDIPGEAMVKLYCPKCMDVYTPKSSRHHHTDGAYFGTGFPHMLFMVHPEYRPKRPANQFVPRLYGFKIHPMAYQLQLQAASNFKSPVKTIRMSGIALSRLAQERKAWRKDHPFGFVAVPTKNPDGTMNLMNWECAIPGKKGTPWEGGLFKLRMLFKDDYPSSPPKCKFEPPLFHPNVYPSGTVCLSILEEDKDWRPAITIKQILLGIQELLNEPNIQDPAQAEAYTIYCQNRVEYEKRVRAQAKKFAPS

[11] = protein 2 construct coexpressed with P53-U (p53-U) and EGFP-SUMO1 in HEK293, Table 1

T1 sequence (P05412+P63279 fused): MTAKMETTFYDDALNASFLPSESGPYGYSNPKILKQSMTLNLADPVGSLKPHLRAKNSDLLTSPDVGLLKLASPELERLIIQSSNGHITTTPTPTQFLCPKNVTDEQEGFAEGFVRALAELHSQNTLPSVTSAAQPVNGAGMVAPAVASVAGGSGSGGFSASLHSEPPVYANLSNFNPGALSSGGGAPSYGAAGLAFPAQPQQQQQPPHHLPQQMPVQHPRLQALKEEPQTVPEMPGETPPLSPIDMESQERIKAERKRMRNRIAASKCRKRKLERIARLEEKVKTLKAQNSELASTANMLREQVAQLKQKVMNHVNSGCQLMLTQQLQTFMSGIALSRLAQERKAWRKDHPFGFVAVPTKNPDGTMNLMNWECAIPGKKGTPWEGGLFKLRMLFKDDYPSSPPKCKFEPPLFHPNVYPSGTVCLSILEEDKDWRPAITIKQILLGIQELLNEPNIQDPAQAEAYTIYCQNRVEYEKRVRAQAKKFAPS

HA-ERK2: ERK2 fused to HA tag
Trans-SUMOylation ([1]; Table 2): −
Trans-SUMOylation ([2]; western blot, Table 1): +
Trans-SUMOylation ([3]; western blot, Table 1): +
Trans-SUMOylation [4, 11]: +

HA-HSP27: HSP27 fused to HA tag
Trans-SUMOylation ([2]; western blot, Table 1): −
Trans-SUMOylation ([5]; western blot, Table 1): −

HA-JNK2: JNK2 fused to HA tag
Trans-SUMOylation ([1]; Table 1): −
Trans-SUMOylation ([2]; western blot, Table 2): −
Trans-SUMOylation ([3]; western blot, Table 2): −
Trans-SUMOylation [6]: −
Trans-SUMOylation [4, 11]: −

HA-JUN: JUN fused to HA tag
Trans-SUMOylation ([1]; Table 1): +
Trans-SUMOylation ([5]; western blot, Table 2): (+/−)

Myc-MK2: MK2 fused to Myc tag
Trans-SUMOylation ([1]; Table 2): −
Trans-SUMOylation ([2]; MEKK1 coexpressed, Table 2): + (MEKK1)
Trans-SUMOylation ([2]; western blot, Table 2): −
Trans-SUMOylation ([5]; MEKK1 coexpressed, Table 2): + (MEKK1)
Trans-SUMOylation ([5]; western blot, Table 2): +
Trans-SUMOylation ([3]; MEKK1ca (Table 1B: MEKK1) coexpressed, Table 1): ++ (MEKK1ca)
Trans-SUMOylation ([3]; western blot, Table 1): +
Trans-SUMOylation [6]: +
Trans-SUMOylation ([4]; protein 2 construct coexpressed with p53-U and EGFP-SUMO1 in HEK293, Table 2): −
Trans-SUMOylation [7]: (+/−)

STAT1-FKBP: human STAT1a fused to FKBP heterodimerisation domain
double modification of STAT1 by SUMOylation and Y701 phosphorylation [8]: no double modification
Trans-SUMOylation ([5]; western blot, Table 2): −
Trans-SUMOylation [9]: −

p53K386R-ST(377-389): p53K386R fused to SUMOylation site tag 377-389
Trans-SUMOylation [10]: +
Trans-SUMOylation ([2]; western blot, Table 2): −

p53K386R-ST(377-391): p53K386R fused to SUMOylation site tag 377-391
Trans-SUMOylation [10]: +
Trans-SUMOylation ([2]; western blot, Table 2): −
